B1: DR5 mAb 1: anti-human DR5 monoclonal antibody; VL SEQ ID NO:3, VH SEQ ID NO:8 (antibody, listed as Mus musculus, V domains shown)
VH: EVKFLESGGGLVQPGGSLKLSCVASGFDFSRYWMSWVRQAPGKGLEWIGEINPDSNTINYTPSLKDKFIISRDNAKNTLYLQMTKVRSEDTALYYCTRRAYYGNPAWFAYWGQGTLVTVSS
VL: DIVLTQSPASLAVSLGQRATISCRASKSVSSSGYSYMHWYQQKPGQPPKVLIFLSSNLDSGVPARFSGSGSGTDFTLNIHPVEDGDAATYYCQHSRDLPPTFGGGTKLEIK
modifications: (1)..(121) Anti-DR5 Antibody mAb 1 Heavy Chain Variable Region; (1)..(111) Anti-DR5 Antibody mAb 1 Light Chain Variable Region
B2: DR5 mAb 2: murine anti-human DR5 monoclonal antibody; VL SEQ ID NO:13, VH SEQ ID NO:18 (antibody, listed as Mus musculus, V domains shown)
VH: KVQLQQSGAELVKPGASVKLSCKASGYTFTEYILHWVKQKSGQGLEWIGWFYPGNNNIKYNEKFKDKATLTADKSSSTVYMELSRLTSEDSAVYFCARHEQGPGYFDYWGQGTTLTVSS
VL: DIVMTQSHKFMSTSVGDRVSITCKASQDVNTAVAWYQQKPGQSPKLLIYWASTRHTGVPDRFTGSGSGTDYTLTIKSVQAEDLTLYYCQQHYITPWTFGGGTKLEIK
modifications: (1)..(119) Anti-DR5 Antibody mAb 2 Heavy Chain Variable Region; (1)..(107) Anti-DR5 Antibody mAb 2 Light Chain Variable Region

Key:
MCF7 = test: […]-GLO cell viability assay with vorinostat; assay type: cell-based; conditions: MCF7 (Breast); 1 μg/ml + 10 μM Vorinostat
Calu3 = test: […]-GLO cell viability assay with vorinostat; assay type: cell-based; conditions: Calu3 (Lung); 1 μg/ml + 1 μM Vorinostat
COLO205 [1] = test: […]-GLO cell viability assay with vorinostat; assay type: cell-based; conditions: for synergy with vorinostat: 0.1 or 1 μM vorinostat; for Average % Ctrl: one day
Description: For the first study COLO205 cells were plated at 2×10^4 cells/well (in 96-well plates), and incubated overnight in F12/DMEM media supplemented with 10% FBS. […] Cell viability was determined using Promega […]-GLO® Luminescent Cell Viability Assay (Cat # G5430) essentially as described in the manufacturer's instructions to assay the amount of ATP present, which is a measure of the number of viable cells in the culture. Briefly, an […]-GLO® Reagent was added to the wells and mixed for two minutes to induce lysis and the luminescence was read in a in PerkinElmer EnVision multilabel plate reader.
Cell viability of cells treated with the test articles is normalized to the corresponding negative control (medium±vorinostat) which is set to 100% and reported in Table 12 as % of control for each test agent alone or % control for each test agent in combination with vorinostat. % of control values less than 100% indicate a reduction in viability and reflect the cytotoxicity of the test article alone or in combination with vorinostat.
The Net Gain (Average % Growth Inhibition)=% Medium Ctrl (10% FBS)−% Medium Ctrl (1/10 μM vorinostat), and represents increased cytotoxicity of the test article in combination with vorinostat over cells treated with vorinostat alone.

[2] = test system: target tumor cells (A549, SKMES, DU145, A375, SKBR3, JIMT); test: LDH release cytotoxicity with PBMC, comparison of DR5×CD3 diabodies; assay type: cell-based, human; conditions: VL and VH Domains tested as DR5×CD3 mAb 2 diabodies, 24 hours, 20:1
Description: In order to make such a comparison, a bispecific DR5×CD3 diabody having the structure shown in FIG. 1 containing the VL and VH Domains of these anti-DR5 antibodies and the VL and VH Domains of CD3 mAb 2 were prepared essentially as described above. The first and second The prepared diabodies were designated “DR5 mAb 1×CD3 mAb 2”; “DR5 mAb 2×CD3 mAb 2”; “DR5 mAb 3×CD3 mAb 2”; and “DR5 mAb 4×CD3 mAb 2”.
Target tumor cells were incubated with one of these diabodies or with the control diabody (4-4-20×CD3 mAb 2) in the presence of peripheral blood mononuclear cells (PBMC) and target tumor cells for 24 hours at an effector to target cell ratio of 20:1. The percentage cytotoxicity was determined by measuring the release of lactate dehydrogenase (LDH) into the media by damaged cells.
The employed target tumor cells were: A549 adenocarcinomic human alveolar basal epithelial cells (FIG. 10A), SKMES human lung cancer cells (FIG. 10B), DU145 human prostate cancer cells (FIG. 10C), A375 human malignant melanoma cells (FIG. 10D), SKBR3 human HER2-overexpressing breast carcinoma cells (FIG. 10E), and JIMT human breast carcinoma cells (FIG. 10F).

DR5-Fc fusion = test: binding to immobilized DR5-Fc fusion in presence of TRAIL; set-up: species or system human; conditions: for amount of immobilized biotinylated antibody: 2 μg/mL biotinylated, 1 μg/mL DR5-Fc fusion coat
Description: The amount of immobilized biotinylated antibody was assessed.

HPAFII = test: […]-GLO cell viability assay with vorinostat; assay type: cell-based; conditions: HPAFII (Pancreas); 1 μg/ml + 10 μM Vorinostat
A549 = test: […]-GLO cell viability assay with vorinostat; assay type: cell-based, human; conditions: A549 (Lung); 1 μg/ml + 10 μM Vorinostat
PC3 = test: […]-GLO cell viability assay with vorinostat; assay type: cell-based; conditions: PC3 (Prostate); 1 μg/ml + 1 μM Vorinostat
Hs746T = test: […]-GLO cell viability assay with vorinostat; assay type: cell-based; conditions: Hs746T (Stomach); 1 μg/ml + 10 μM Vorinostat
DU145 = test: […]-GLO cell viability assay with vorinostat; assay type: cell-based, human; conditions: DU145 (Prostate); 1 μg/ml + 10 μM Vorinostat
MDA-MB-361 = test: […]-GLO cell viability assay with vorinostat; assay type: cell-based; conditions: MDA-MB-361 (Breast); 1 μg/ml + 10 μM Vorinostat
[3] = test system: cell lines obtained from ATCC; test: MTS cell proliferation assay, panel of cell lines; assay type: cell-based; conditions: for inhibition of cell growth, antibody alone: any of cell lines examined, not cross-linked; for cytotoxicity when cross-linked: cross-linked by goat anti-mouse IgG Fc antibody
Description: (§1) Cell lines obtained from ATCC were cultured under standard tissue culture conditions. Each cell line was plated at ˜2×10^4 cells/well (in 96-well plates), and incubated overnight in F12/DMEM media supplemented with 10% FBS. […] Cell viability was determined using Promega CellTiter 96® AQeous Non-Radioactive Cell Proliferation Assay (Cat # G5430) essentially as described in the manufacturer's instructions to assay the amount of soluble formazan produced by cellular reduction of the MTS, which is a measure of the number of viable cells in the culture. Briefly, MTS/PMS regent was added to the wells and the absorbance at 490 nm (referenced at […]) was read in a Molecular Devices ThermoMax microplate reader.
(§2) Similar studies were performed over a range of anti-DR5 mAb concentrations from ˜10^−3 nM to ˜10^2 nM. The data for COLO205 cells is provided in FIG. 13, and are representative of cell lines sensitive to the antibodies of the invention.
(§3) The cytotoxicity of tetravalent DR5-Binding Molecules of the present invention was investigated. […] His-tagged TRAIL (R&D systems) was used as a positive control.

COLO205 [4] = test: MTS cell proliferation assay; assay type: cell-based; conditions: COLO205 (Colon); 1 μg/ml, ±10 μg/ml αmFc; two days
Description: as §1, §2, §3
Similar studies were performed over a range of anti-DR5 mAb concentrations from ˜10^−3 nM to ˜10^2 nM.
His-tagged TRAIL (R&D systems) was used as a positive control.

SKBR3 = test: […]-GLO cell viability assay with vorinostat; assay type: cell-based, human; conditions: SKBR3 (Breast); 1 μg/ml + 1 μM Vorinostat
SKOV3 = test: […]-GLO cell viability assay with vorinostat; assay type: cell-based; conditions: SKOV3 (Ovary); 1 μg/ml + 1 μM Vorinostat
ES2 = test: […]-GLO cell viability assay with vorinostat; assay type: cell-based; conditions: ES2 (Ovary); 1 μg/ml + 10 μM Vorinostat
AsPC1 = test: […]-GLO cell viability assay with vorinostat; assay type: cell-based; conditions: AsPC1 (Pancreas); 1 μg/ml + 1 μM Vorinostat
[5] = Vorinostat 0 μM, % Medium Ctrl (10% FBS), 10 ng/ml tetravalent molecule or 1 μg/ml DR5 mAb
[6] = Vorinostat 0.1 μM, normalized to medium + vorinostat
[7] = Vorinostat 1 μM, normalized to medium + vorinostat

Sequence of DR5-Fc fusion (as listed by the source): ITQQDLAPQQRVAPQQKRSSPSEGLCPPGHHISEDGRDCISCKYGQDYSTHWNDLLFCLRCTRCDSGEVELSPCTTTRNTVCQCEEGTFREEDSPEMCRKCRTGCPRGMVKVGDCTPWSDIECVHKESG

Molecule	Net Gain (Average % Growth Inhibition) (MCF7)	Net Gain (Average % Growth Inhibition) (Calu3)	synergy with vorinostat (COLO205 [1])	Average % Ctrl (COLO205 [1]; [5])	Net Gain (Average % Growth Inhibition) (COLO205 [1]; Vorinostat 0.1 μM)	Average % Ctrl (COLO205 [1]; [6])	Net Gain (Average % Growth Inhibition) (COLO205 [1]; Vorinostat 1 μM)	Average % Ctrl (COLO205 [1]; [7])	potency in inducing cytotoxicity versus reference DR5 mAbs [2]	effect of histidine tagged TRAIL on amount bound to immobilized DR5-Fc (DR5-Fc fusion)	amount of immobilized biotinylated antibody (DR5-Fc fusion; 20 μg/mL TRAIL-His)	amount of immobilized biotinylated antibody (DR5-Fc fusion; Buffer)	Net Gain (Average % Growth Inhibition) (HPAFII)	Net Gain (Average % Growth Inhibition) (A549)	Net Gain (Average % Growth Inhibition) (PC3)	Net Gain (Average % Growth Inhibition) (Hs746T)	Net Gain (Average % Growth Inhibition) (DU145)	Net Gain (Average % Growth Inhibition) (MDA-MB-361)	inhibition of cell growth, antibody alone [3]	cytotoxicity when cross-linked [3]	other results
B1	4.55%	0.11%	did not synergize	96.8%	0%	96.4%	3%	93.3%	more potent	not affected	1.939	2.118	1.75%	6.48%	1.59%	0.20%	4.18%	5.11%	neither DR5 mAb 1, nor DR5 mAb 2 alone is capable of inhibiting cell growth	potent cytotoxicity	% Inhibition (Average) (COLO205 [4]): 3.5%; Net Gain (Average % Growth Inhibition) (SKBR3): 0.69%; Net Gain (Average % Growth Inhibition) (SKOV3): 1.75%; Net Gain (Average % Growth Inhibition) (ES2): 4.17%; Net Gain (Average % Growth Inhibition) (AsPC1): 5.11%
B2	5.00%	0.11%	did not synergize	96.4%	0%	96.5%	1%	95.5%	more potent	not affected	2.052	2.052	2.86%	6.48%	1.59%	0.20%	4.18%	5.11%	neither DR5 mAb 1, nor DR5 mAb 2 alone is capable of inhibiting cell growth	potent cytotoxicity	% Inhibition (Average) (COLO205 [4]): 3.61%; Net Gain (Average % Growth Inhibition) (SKBR3): 0.69%; Net Gain (Average % Growth Inhibition) (SKOV3): 1.75%; Net Gain (Average % Growth Inhibition) (ES2): 4.17%; Net Gain (Average % Growth Inhibition) (AsPC1): 5.11%

From patent US10501552B2, “Multivalent molecules comprising DR5-binding domains” (MacroGenics, Inc., priority 2015, dated 2019)
